Data on 4 molecules can be found in US20230212587A1, “Mutant Hydroxyphenylpyruvate Dioxygenase Polypeptide, Encoding Gene Thereof and Use Therefor” (Beijing Dabeinong Biotechnology Co., Ltd., priority 2019, published 2023).

This experiment deals with Arabidopsis thaliana T1 plants. Briefly: Topramezone tolerance of transgenic Arabidopsis thaliana T1 plants (pesticide damage grade by bleached leaf area, score, resistance evaluation). Format: in vivo. The note with it: HPPD F372V mutants, Table 7. The method in brief: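 Eighteen days after sowing, wild-type and HPPD-transgenic T1 Arabidopsis receive a topramezone spray at 1×, 2× or 4× field rate (25–100 g ai/ha) or water. Seven days later each plant is graded by its proportion of bleached leaf area.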

B1: GsHPPDm-F372V: Gossypium hirsutum HPPD mutant F372V, SEQ ID NO: 351 (protein)
chain: MVQTNQSGSGNDFKLVGFSNFVRSNPKSDRFTVKRFHHIEFWCTDATNVARRFSWGLGMQFVAKSDLSTGNLTHASYLLRSRDLNFLFTAPYSPSIAVAQNLSPQSTASIPSFDHSLCRSFAATHGLGVRAIAIEVDDAETAFTTSVTHGALPFCPPTPLGDVATIAEVKLYGDVVLRYVSYTTTINSDHDFLPGFEKIEDTLSYPLDYGLRRLDHAVGNVPELGPAVSYVKSFTGFHEFAEFTAEDVGTSESGLNSVVLANNEEMVLLPMNEPVFGTKRKSQIQTYLEHNEGAGVQHLALVSEDIFKTLREMRKRSFVGGFEFMPSPPPTYYKKLKQRAGDILSDEQIKECEELGILVDRDDQGTLLQIVTKPVGDRPTIFIEIIQRIGCMVKDEEGKQYQKGGCGGFGKGNFSELFKSIEEYEKSLEAKQSQNP
modifications: GsHPPDm-F372V Amino Acid Sequence
Regarding B1, the Resistance evaluation result reads like this: (topramezone 25 g ai/ha (1x)) “Moderately resistant”; (topramezone 100 g ai/ha (4x)) “Non-resistant”.

B2: TaHPPDm-F372V: Triticum aestivum HPPD mutant F372V, SEQ ID NO: 353 (protein)
chain: MPPTPTTPAATGAGAAAAVTPEHARPRRMVRFNPRSDRFHTLSFHHVEFWCADAASAAGRFAFALGAPLAARSDLSTGNSVHASQLLRSGNLAFLFTAPYANGCDAATASLPSFSADAARRFSADHGLAVRSIALRVADAAEAFRASVDGGARPAFSPVDLGRGFGFAEVELYGDVVLRFVSHPDGTDVPFLPGFEGVSNPGAVDYGLTRFDHVVGNVPELASAAAYVAGFTGFHEFAEFTTEDVGTAESGLNSMVLANNSEGVLLPLNEPVHGTKRRSQIQTFLEHHGGPGVQHIAVASSDVLRTLREMRARSAMGGFDFLPPPLPKYYEGVRRIAGDVLSEAQIKECQELGVLVDRDDQGVLLQIVTKPVGDRPTLFLEMIQRIGCMEKDERGEEYQKGGCGGFGKGNFSELFKSIEDYEKSLEAKQSAAVQGS
modifications: TaHPPDm-F372V Amino Acid Sequence
Consider B2, for which the Resistance evaluation entry runs as follows: (topramezone 25 g ai/ha (1x)) “Highly resistant”; (topramezone 100 g ai/ha (4x)) “Moderately resistant”.

B3: N5HPPDm-F372V: Sphingobium sp. N5 HPPD mutant F372V, SEQ ID NO: 397 (protein)
chain: MAADSENPLGLHGFAFAEFTSPDPAAMARQFEQLGFVPAARRKDRGLTLYRQGRIAFILNAGEGEQASAFRAAHGPSANGMAFNVADAKAAHRHAIQSGATDADTAQSALPGTYAIEGIGDSLLYLVDSDPFADWDEVPGWREASAERGVGLDLLDHLTHNVRRGQMRVWSEFYATLFGFEEQKFFDIKGQATGLFSQAMIAPDHEIRIPLNESQDDNSQIEEFIREYNGEGIQHLALTTPDIYSTVEKLRANGVRLQDTIDTYYDLVDERVPGHGEDLARLRKNRILIDGDVHDEGLLLQIVTETMFGPIFFEIIQRKGNEGFGNGNFQVLFESIELDQIRRGVVTVDA
modifications: N5HPPDm-F372V Amino Acid Sequence
B3: the Resistance evaluation entry (topramezone 25 g ai/ha (1x)) was “Highly resistant” and the Resistance evaluation result (topramezone 100 g ai/ha (4x)) is reported as “Highly resistant”.

B4: N4HPPDm-F372V: Burkholderia sp. N4 HPPD mutant F372V, SEQ ID NO: 395 (protein)
chain: MQIPNWENPVGTDGFEFIEYTAPDPKALGQLFERMGFTAIARHRHKDVTVYRQGDINFIINAEPDSFAQRFARLHGPSICAIAFRVQDAAKAYQHALELGAWGFDNKTGPMELNIPAIKGIGDSLIYFVDRWRGKNGAQPGAIGDISIYDVDFEPIAGATPNPAGHGLTYIDHLTHNVHRGRMQEWAEFYERLFNFREVRYFDIEGKVTGVKSKAMTSPCGKIRIPINEEGSDTAGQIQEYLDAYHGEGIQHIALGTSDIYGAVDGLRGKEVKLLDTIDTYYELVDRRVPDHGESLDELKKRKILIDGARDDLLLQIVTENQIGPIFFEIIQRKGNQGFGEGTFKALFESIELDQIRRGVVQDKA
modifications: N4HPPDm-F372V Amino Acid Sequence
Consider B4, for which the Resistance evaluation entry is “Highly resistant” (topramezone 25 g ai/ha (1x)) and “Highly resistant” (topramezone 100 g ai/ha (4x)).
